In patent US20250361308A1 (NEUROGENE, published 2025) one finds Kd data, which are given here for 10 molecules.

For assay [1], the target named is T1, human CD122 and CD132 expressed on a HEK293 cell line (human, UniProt P14784 27-551; P31785 23-369).
T1 construct: whole, on cells; also called IL-2RBG; IL-2Rβγ on cells
T1 sequence (looked up) 1: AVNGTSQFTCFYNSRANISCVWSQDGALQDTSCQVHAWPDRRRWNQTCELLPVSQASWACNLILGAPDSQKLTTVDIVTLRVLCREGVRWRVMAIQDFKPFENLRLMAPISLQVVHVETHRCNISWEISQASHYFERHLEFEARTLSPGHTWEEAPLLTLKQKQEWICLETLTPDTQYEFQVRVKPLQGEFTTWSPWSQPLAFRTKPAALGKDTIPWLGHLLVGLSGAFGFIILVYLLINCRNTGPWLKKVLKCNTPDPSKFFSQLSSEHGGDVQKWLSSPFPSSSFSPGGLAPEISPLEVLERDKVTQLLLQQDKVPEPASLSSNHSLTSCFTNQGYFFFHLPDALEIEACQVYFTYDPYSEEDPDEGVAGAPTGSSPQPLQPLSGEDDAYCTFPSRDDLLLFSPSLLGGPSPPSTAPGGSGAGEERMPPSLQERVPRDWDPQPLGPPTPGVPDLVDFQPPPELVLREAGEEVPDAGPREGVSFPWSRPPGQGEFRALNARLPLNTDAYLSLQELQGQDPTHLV
T1 sequence (looked up) 2: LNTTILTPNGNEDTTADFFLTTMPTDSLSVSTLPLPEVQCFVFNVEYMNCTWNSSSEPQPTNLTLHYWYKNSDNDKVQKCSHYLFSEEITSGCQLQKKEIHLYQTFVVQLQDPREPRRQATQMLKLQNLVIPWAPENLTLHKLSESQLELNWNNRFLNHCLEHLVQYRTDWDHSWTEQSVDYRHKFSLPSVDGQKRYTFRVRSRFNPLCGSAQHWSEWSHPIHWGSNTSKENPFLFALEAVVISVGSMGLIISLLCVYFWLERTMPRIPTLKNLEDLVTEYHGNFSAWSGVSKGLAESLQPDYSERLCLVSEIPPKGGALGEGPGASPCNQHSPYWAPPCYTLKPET
The assay can be described thus: flow cytometry saturation binding on HEK293 cells expressing human CD122 and CD132; apparent KD.
Experimental: Saturation binding studies were done using a HEK293 cell line expressing human CD122 and CD132. […] Cells were incubated for 30 minutes on ice, then pelleted and washed twice with cold PBS. […] After a 30-minute incubation on ice, the cells were pelleted and washed twice in cold PBS. […] The apparent dissociation constant (KD) was calculated using GraphPad Prism (GraphPad, San Diego, CA).

Assay [2] deals with T2, Human IL-2 R beta/CD122 Protein, Fc Tag (ILB-H5253) (human, UniProt P14784 27-239).
T2 construct: Bought protein, captured on anti-human Fc sensors; also called huIL2Rβ; IL-2Rβ; not shown: Fc tag of the bought reagent
T2 sequence (looked up): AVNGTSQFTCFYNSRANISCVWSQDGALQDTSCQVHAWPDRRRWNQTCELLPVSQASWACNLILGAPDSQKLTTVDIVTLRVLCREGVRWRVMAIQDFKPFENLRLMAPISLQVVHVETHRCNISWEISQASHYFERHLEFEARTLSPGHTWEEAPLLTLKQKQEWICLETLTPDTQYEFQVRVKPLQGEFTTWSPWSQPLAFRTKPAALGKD
Put plainly: Octet BLI; IL-2Rβ-Fc on anti-human Fc sensors, Neo-2/15 variant as analyte, 1:1 steady-state model.

In assay [3] the target is T3, huIL2Rβγ: Human IL-2 R gamma/CD132 Protein, Fc Tag (ILG-H5256) with Human IL-2 R beta/CD122 Protein, His Tag … (human, UniProt P31785 23-254; P14784 27-239).
T3 construct: IL-2Rγ-Fc sat on the sensor; IL-2Rβ-His was in solution at a concentration equimolar to or greater than the analyte; also called IL-2RBG; not shown: Fc tag of the bought reagent; His tag of the bought reagent
T3 sequence (looked up) 1: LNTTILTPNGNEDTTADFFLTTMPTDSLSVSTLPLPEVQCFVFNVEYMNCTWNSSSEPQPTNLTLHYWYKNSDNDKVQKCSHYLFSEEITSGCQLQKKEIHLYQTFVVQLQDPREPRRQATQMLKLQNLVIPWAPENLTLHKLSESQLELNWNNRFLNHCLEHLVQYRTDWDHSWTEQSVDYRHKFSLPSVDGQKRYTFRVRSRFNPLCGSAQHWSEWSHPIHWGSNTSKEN
T3 sequence (looked up) 2: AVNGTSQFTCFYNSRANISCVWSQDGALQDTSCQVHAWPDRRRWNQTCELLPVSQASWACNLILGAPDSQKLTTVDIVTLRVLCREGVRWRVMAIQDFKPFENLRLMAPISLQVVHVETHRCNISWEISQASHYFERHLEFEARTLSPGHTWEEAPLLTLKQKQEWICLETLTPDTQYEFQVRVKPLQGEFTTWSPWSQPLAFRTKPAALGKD
The assay can be described thus: Octet BLI; IL-2Rγ-Fc on anti-human Fc sensors with IL-2Rβ-His in solution, 1:1 steady-state model.

The target of assay [4] is T2, Human IL-2 R beta/CD122 Protein, Fc Tag …. Put plainly: Octet BLI; IL-2Rβ-Fc on anti-human Fc sensors, Neo-2/15 variant as analyte, 1:1 steady-state model. This is another data set of the same source.
Experimental: (§1) Binding data was collected in the Octet RED96 instrument and processed using the integrated Octet software. […] Anti-Human Fc Capture (AHC) sensors were equilibrated for 90s in 1× Cytiva HBS-EP+ Buffer 10 binding buffer. Sensors were loaded with receptor by mixing with wells containing 0.5 ug/ml aforementioned receptors until a threshold response reached 1.0 nm. Sensors were then baselined in binding buffer for 90s. After baseline measurement, the association kinetics (kon) were monitored by dipping the biosensors in wells containing analyte for 400s. […] Dissociation kinetics (koff) were monitored by dipping the biosensors in separate wells of binding buffer for 800s. The dissociation constant (Kd) was calculated using a 1:1 steady-state binding model with the Octet software.
Assay [5] deals with T3, huIL2Rβγ: Human IL-2 R gamma/CD132 …. The assay can be described thus: Octet BLI; IL-2Rγ-Fc on anti-human Fc sensors with IL-2Rβ-His in solution, 1:1 steady-state model. The source holds these as a separate data set.
Experimental: as §1

Like-named read-outs stand apart in the source and are kept apart here.

B1: C terminal anti-CD25 full-length Ab fusion with Neo-2/15_D15S_Q95E (TRA comprising SEQ ID NO: 69 and 70) (other)
heavy: QVQLVQSGAEVKKPGSSVKVSCKASGYTFTSYRMHWVRQAPGQGLEWIGYINPSTGYTEYNQKFKDKATITADESTNTAYMELSSLRSEDTAVYYCARGGGVFDYWGQGTLVTVSSASTKGPSVFPLAPSSKSTSGGTAALGCLVKDYFPEPVTVSWNSGALTSGVHTFPAVLQSSGLYSLSSVVTVPSSSLGTQTYICNVNHKPSNTKVDKKVEPKSCDKTHTCPPCPAPEAAGAPSVFLFPPKPKDTLMISRTPEVTCVVVDVSHEDPEVKFNWYVDGVEVHNAKTKPREEQYNSTYRVVSVLTVLHQDWLNGKEYKCKVSNKALPAPIEKTISKAKGQPREPQVYTLPPSREEMTKNQVSLTCLVKGFYPSDIAVEWESNGQPENNYKTTPPVLDSDGSFFLYSKLTVDKSRWQQGNVFSCSVMHEALHNHYTQKSLSLSPGKGGGGSGGGGSGGGGSPKKKIQLHAEHALYSALMILNIVKTNSPPAEEKLEDYAFNFELILEEIARLFESGDQKDEAEKAKRMKEWMKRIKTTASEDEQEEMANAIITILESWIFS
light: DIQMTQSPSTLSASVGDRVTITCSASSSISYMHWYQQKPGKAPKLLIYTTSNLASGVPARFSGSGSGTEFTLTISSLQPDDFATYYCHQRSTYPLTFGQGTKVEVKRTVAAPSVFIFPPSDEQLKSGTASVVCLLNNFYPREAKVQWKVDNALQSGNSQESVTEQDSKDSTYSLSSTLTLSKADYEKHKVYACEVTHQGLSSPVTKSFNRGEC
notes: also called distal fused TRA
As for B1, the Kd in assay [1] came out at 131 nM.

B2: N terminal anti-CD25 full-length Ab fusion with Neo-2/15_D15S_Q95E (other)
heavy: GSPKKKIQLHAEHALYSALMILNIVKTNSPPAEEKLEDYAFNFELILEEIARLFESGDQKDEAEKAKRMKEWMKRIKTTASEDEQEEMANAIITILESWIFSGGGGSGGGGSGGGGSQVQLVQSGAEVKKPGSSVKVSCKASGYTFTSYRMHWVRQAPGQGLEWIGYINPSTGYTEYNQKFKDKATITADESTNTAYMELSSLRSEDTAVYYCARGGGVFDYWGQGTLVTVSSASTKGPSVFPLAPSSKSTSGGTAALGCLVKDYFPEPVTVSWNSGALTSGVHTFPAVLQSSGLYSLSSVVTVPSSSLGTQTYICNVNHKPSNTKVDKKVEPKSCDKTHTCPPCPAPEAAGAPSVFLFPPKPKDTLMISRTPEVTCVVVDVSHEDPEVKFNWYVDGVEVHNAKTKPREEQYNSTYRVVSVLTVLHQDWLNGKEYKCKVSNKALPAPIEKTISKAKGQPREPQVYTLPPSREEMTKNQVSLTCLVKGFYPSDIAVEWESNGQPENNYKTTPPVLDSDGSFFLYSKLTVDKSRWQQGNVFSCSVMHEALHNHYTQKSLSLSPGK
light: DIQMTQSPSTLSASVGDRVTITCSASSSISYMHWYQQKPGKAPKLLIYTTSNLASGVPARFSGSGSGTEFTLTISSLQPDDFATYYCHQRSTYPLTFGQGTKVEVKRTVAAPSVFIFPPSDEQLKSGTASVVCLLNNFYPREAKVQWKVDNALQSGNSQESVTEQDSKDSTYSLSSTLTLSKADYEKHKVYACEVTHQGLSSPVTKSFNRGEC
As to B2, the Kd in assay [1] came to 82 nM.

B3: N terminal anti-CD25 full-length Ab fusion with Neo-2/15_N40S_I44S_Q95E (TRA comprising SEQ ID NO: 74 and 70) (other)
heavy: GSPKKKIQLHAEHALYDALMILNIVKTNSPPAEEKLEDYAFSFELSLEEIARLFESGDQKDEAEKAKRMKEWMKRIKTTASEDEQEEMANAIITILESWIFSGGGGSGGGGSGGGGSQVQLVQSGAEVKKPGSSVKVSCKASGYTFTSYRMHWVRQAPGQGLEWIGYINPSTGYTEYNQKFKDKATITADESTNTAYMELSSLRSEDTAVYYCARGGGVFDYWGQGTLVTVSSASTKGPSVFPLAPSSKSTSGGTAALGCLVKDYFPEPVTVSWNSGALTSGVHTFPAVLQSSGLYSLSSVVTVPSSSLGTQTYICNVNHKPSNTKVDKKVEPKSCDKTHTCPPCPAPEAAGAPSVFLFPPKPKDTLMISRTPEVTCVVVDVSHEDPEVKFNWYVDGVEVHNAKTKPREEQYNSTYRVVSVLTVLHQDWLNGKEYKCKVSNKALPAPIEKTISKAKGQPREPQVYTLPPSREEMTKNQVSLTCLVKGFYPSDIAVEWESNGQPENNYKTTPPVLDSDGSFFLYSKLTVDKSRWQQGNVFSCSVMHEALHNHYTQKSLSLSPGK
light: DIQMTQSPSTLSASVGDRVTITCSASSSISYMHWYQQKPGKAPKLLIYTTSNLASGVPARFSGSGSGTEFTLTISSLQPDDFATYYCHQRSTYPLTFGQGTKVEVKRTVAAPSVFIFPPSDEQLKSGTASVVCLLNNFYPREAKVQWKVDNALQSGNSQESVTEQDSKDSTYSLSSTLTLSKADYEKHKVYACEVTHQGLSSPVTKSFNRGEC
notes: also called proximal fused TRA
On to B3, for which the Kd in assay [1] came to 131 nM.

B4: Neo-2/15_D15A (designed binder)
chain: PKKKIQLHAEHALYAALMILNIVKTNSPPAEEKLEDYAFNFELILEEIARLFESGDQKDEAEKAKRMKEWMKRIKTTASEDEQEEMANAIITILQSWIFS
Take B4: the figures for the Kd in assay [2] and in assay [3] were 140 nM and 230 nM, respectively.

B5: Neo-2/15_H11A (designed binder)
chain: PKKKIQLHAEAALYDALMILNIVKTNSPPAEEKLEDYAFNFELILEEIARLFESGDQKDEAEKAKRMKEWMKRIKTTASEDEQEEMANAIITILQSWIFS
Take B5: the results for the Kd in assay [4] and in assay [5] were 3.3 nM and 15 nM, respectively.

B6: Neo-2/15_Q95A (designed binder)
chain: PKKKIQLHAEHALYDALMILNIVKTNSPPAEEKLEDYAFNFELILEEIARLFESGDQKDEAEKAKRMKEWMKRIKTTASEDEQEEMANAIITILASWIFS
B6: the Kd stood at 3 nM in assay [2] and 190 nM in assay [3].

B7: Neo-2/15_Y14A (designed binder)
chain: PKKKIQLHAEHALADALMILNIVKTNSPPAEEKLEDYAFNFELILEEIARLFESGDQKDEAEKAKRMKEWMKRIKTTASEDEQEEMANAIITILQSWIFS
As for B7, the Kd was 0.7 nM in assay [4] and 10 to 20 nM in assay [5].

B8: Neo-2/15_H8A (designed binder)
chain: PKKKIQLAAEHALYDALMILNIVKTNSPPAEEKLEDYAFNFELILEEIARLFESGDQKDEAEKAKRMKEWMKRIKTTASEDEQEEMANAIITILQSWIFS
In the case of B8, the figures for the Kd in assay [4] and in assay [5] were 1.4 nM and 11 nM, respectively.

B9: Neo-2/15_N40A (designed binder)
chain: PKKKIQLHAEHALYDALMILNIVKTNSPPAEEKLEDYAFAFELILEEIARLFESGDQKDEAEKAKRMKEWMKRIKTTASEDEQEEMANAIITILQSWIFS
On to B9, for which the values for the Kd in assay [2] and in assay [3] were 60 nM and 44 nM, respectively.

B10: Neo-2/15_I44A (designed binder)
chain: PKKKIQLHAEHALYDALMILNIVKTNSPPAEEKLEDYAFNFELALEEIARLFESGDQKDEAEKAKRMKEWMKRIKTTASEDEQEEMANAIITILQSWIFS
Take B10: the Kd was determined as 84 nM in assay [2] and 58 nM in assay [3].
